Measured values from publication PMC3177193 (Nucleic Acids Research, 2011).
One block for each binder: values may come before it.

Experiments:
[1] = target: T1, Arabidopsis SERRATE core (SE core, residues 194-543), hexahistidine-tagged (Arabidopsis thaliana, UniProt Q9ZVD0 194-543); test: pull-down
T1 sequence (looked up): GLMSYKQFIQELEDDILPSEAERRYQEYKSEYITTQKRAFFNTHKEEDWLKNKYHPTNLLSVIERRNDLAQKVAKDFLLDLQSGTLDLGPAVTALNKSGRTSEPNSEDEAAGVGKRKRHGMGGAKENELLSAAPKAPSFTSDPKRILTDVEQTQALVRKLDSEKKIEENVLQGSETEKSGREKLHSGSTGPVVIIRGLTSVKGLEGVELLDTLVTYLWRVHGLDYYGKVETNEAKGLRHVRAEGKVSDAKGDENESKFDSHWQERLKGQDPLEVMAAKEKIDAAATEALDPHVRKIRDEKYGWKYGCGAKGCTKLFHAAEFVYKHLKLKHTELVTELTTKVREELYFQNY

[2] = target: T2, GST-fused SE Middle domain (SE-Mid, residues 248-470) (Arabidopsis thaliana, UniProt Q9ZVD0 248-470); test: pull-down
T2 sequence (looked up): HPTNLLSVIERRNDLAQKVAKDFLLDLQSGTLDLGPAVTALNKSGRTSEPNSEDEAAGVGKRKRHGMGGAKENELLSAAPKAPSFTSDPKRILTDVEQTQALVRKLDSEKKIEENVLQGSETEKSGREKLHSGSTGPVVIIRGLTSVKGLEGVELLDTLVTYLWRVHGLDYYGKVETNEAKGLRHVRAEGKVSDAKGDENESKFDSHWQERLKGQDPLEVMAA

- binding result [1]: binds
B1: GST-fused HYL1 RBD1+2 (residues 15-172) (domain or fragment, Arabidopsis thaliana, UniProt O04492 15-172, looked up)
chain: VFKSRLQEYAQKYKLPTPVYEIVKEGPSHKSLFQSTVILDGVRYNSLPGFFNRKAAEQSAAEVALRELAKSSELSQCVSQPVHETGLCKNLLQEYAQKMNYAIPLYQCQKVETLGRVTQFTCTVEIGGIKYTGAATRTKKDAEISAGRTALLAIQSDT

- binding result [1]: binds
B2: GST-fused HYL1 RBD2 (residues 100-172) (domain or fragment, Arabidopsis thaliana, UniProt O04492 100-172, looked up)
chain: GLCKNLLQEYAQKMNYAIPLYQCQKVETLGRVTQFTCTVEIGGIKYTGAATRTKKDAEISAGRTALLAIQSDT

- binding result [2]: binds
B3: Non-tagged HYL1 RBD2 (residues 100-172) (domain or fragment, Arabidopsis thaliana, UniProt O04492 100-172, looked up)
chain: B2 chain
